In the DeepSol protein solubility set:

Experiment: soluble on expression in E. coli; label from the status in PepcDB or PDB records

Row | Sequence | soluble on expression in E. coli
1 | MGSDKIHHHHHHMCEISVVMPVYNAEMHIKDAIESVLEQSFVDFEFILIDDGSTDHTSSIIQSYNDKRVRLIQNSHNFIESLNLGIENSLGKYMARMDGDDIMHIDRLKIQYAIMQEYPDVTVCGTWMNSIGTYSQTNGLLSTLSGWVEQPLLKFTKGNFLFHPTTMIRMDFLKKNALKYENYPYAEDFKFWVEIAKSGGRFYIDSQPLLYYRISDSQVSSQKSSEQRATTESIINEVLEYLMELNKNEYPELAAAYGDLCKLYEKQLLTKCEVLTLFQTLFSKNEKKLNL | not soluble
2 | MGSDKIHHHHHHMCVKKGESSITSLVSAFGRAYHSEFDSPKIFDDYVAKEFISPKERSDIETNMVQGIHFFNTDIAEQFQDNPKEILKWITQVQLSPTPLARAAYCERVLLHEITLGAKQYVILGAGLDTFSFRHRELENKIEIFEVDHPSTQQFKKERIKEAELEVPNNLHFVSMDFTKGFSYEQLRNEGFEHKKTFFSLLGVSYYLTKEELASLIECLFEMVPEGSSIVFDYPDENLFTEKGLSNRVENMVKMAAVGGEPMKSCYSYAEMEALLEKAGLLIYEHLSPEDINAFYFEGRNDYLKAFETVHYVHAVKK | not soluble
3 | MGSDKIHHHHHHMCYTPACLFSRVLHSSTRWRGGRVVECVALEKRSTRKGTVGSNPTLFAKKEAPRPAQQAGFSFVDSVSQVSGAAIVQPMTRFAWTPETIPWQETAPDGTRYALLEGVREAGTFTYAFFLPAGFWDEAHWHSTDARVFVMQGELRLGYGDRLDKEAATSYPAGSALLVPAEHRHHDGAEVDTLILGVASGSWFTRYVNSANQGSAGTV | not soluble
4 | MGSDKIHHHHHHMDAPSRSHLASPILVANYRSLPSFMYRDSLPEAAVSPQLLALNTRLLETLEQDLAWFNSSDALEQLSGKTYYGSNLPFALAYSGHQFGGWSPVLGDGRAHVLGQLKTAADELIDVQLKGSGATPFSRGGDGRATLGAVIREYLLSEAMAGLNISTTGSLAVIATGEDVWRNGAYPGAILVRTAKSHLRVGSFQYAAVHQGPEAVKTLADFALAQYYPELSHDENPYQALLAQVIKGQAELVAQWMLVGFIHGVMNTDNSSITGETIDYGPCAFMDEFNPNKVFSSIDSQGRYAWGNQGAIAQWNMARLGETLLPLLDSDEAKALEIAQAQLGDFNRLFAEHFYQGMARKLSLDASDPELIPFVDSTLQLMTNTRVDFCQFFNALTEYHSTHREQDAGLVALFSTEAFPSLSSTPAQLLQDWLSQWQAKACDSQAALAAMIKANPKFIARNHKVEAAISAAEQNNDYSLFLDMARVLANPYVLAEQDKHYQDAPTPDQRVKQTFCGT | not soluble
5 | MGSDKIHHHHHHMDARSLISLIPSLSAYKWYGKVTRVIGLTIEAKGPQASIGELCYILVGKQGTKVMAEVVGFKEERVLLMPLNGTAEIAPGSLVEGTGRPLQVKVGYSLIGHVIDGCGRPLTGEALPNGLTPYPTDNPPPNPISRPRIKEAMHLGVRAIDGLLTVGKGQRVGIFAGSGVGKSTLLAMLAKNAAADLNIIALIGERGREVKDFIERDLGEDGLRRSIIVVATSDQPALMRIKGAMTATALAEYFRDQGLHVNLMMDSVTRFAMAQREIGLAVGEPPTTKGYTPSVFALLPKLLERAGTNGKGSITGFYTVLVDGDDLNEPISDTVRGILDGHFVLDRELANKGHYPAINILKSVSRVMNDIVTDEQKRAAEHVRSLLSVYKESEDLINIGAYKRGSSKQIDEAIERQPEVISFLRQNTDEVAIAEHSIQQLIQAFGKGD | not soluble
6 | MGSDKIHHHHHHMDASKNSDFKDTWLVVPCYNEATVIREVLENALKTFPNIVAVNDGSPDNSAEEIHAAGAHLVNHPVNLGQGAAIQTGIEYARKQPGAKYFVTFDADGQHQVKDVIRMVERLRAEDVDIIVGTRFGRPRQADDQVPLIKRLVLRTVVLLSPKTRRLGLTDAHNGLRVFNQKVAQEMNIRMNGMSHASEIVDQIDERGWRISEEPVDILYTEYSMSKGQSLLNGVNILADGFLARRLP | not soluble
7 | MGSDKIHHHHHHMDDQLNALRDLAIPFPITASFRQQARAYASQYFTQDTHERVYLNTLAVLVANAYFRLLNFQTNLTKAERWNAACRVWSEANEIELVGLGNLECRVITAGQQTIILPPETWADRIGYLFVEITSSEKVATLIGFLPAFDAETSGEEVAISTTGYAYADLKSMDEAMDYLTQQEASARSKTGEIDNLTRDFAAKKITYLRNWLNNVYDSDWEPAMRELSAATCKKKIQLVGQVFEMQLSVSQSNGAITVTVIVRLESGFLPIGIQVSVPDESEIYTETVSTPADLIRIPLEFSPGEEFWVELRWGETFTREYFIA | not soluble
8 | MGSDKIHHHHHHMDEYNFIVEKLQELGLTKREAEVYLAILMKNGATVKDLLETLDVHQPQLYNIIQSLIRKGFIRASAGRPRVYTANDITALIDVQKMKLDSLKRILQEELGKIRENEGEEPYISYVRSLEGVLASAIETINSAEVEIRAELPYQIYKELSPYFVSALRRGINLYLLVYPTTKSFIELADFKNQIKVKTSELGNFLLIISDLHRAVYSKRRFFTIHKLPISENEVYGYIIHEKDLLLRLLNIHNNLWVKAKEIIGWIPGPEVYPKTFIDFSMALNELEALLRLGYTPIVRVLGRDVKSEYPIEVSGRVRAVNRIGIVSNFILESNEGTFTVGGFDAEIEDIEAQRVIIEKVEREGGKKP | not soluble
9 | MGSDKIHHHHHHMDFDMIEEKKDSVIVRNVENFELKDIFDCGQCFRWHRQENGNYIGIAFEKVVEVQKIGEDVVIYNINEEEFKNVWSEYFDLYRDYGEIKKELSRDPLLKKSVDFGEGIRILRQDPFEILLSFIISANNRIPMIKKCINNISEKAGKKLEYKGKIYYAFPTVDKLHEFTEKDFEECTAGFRAKYLKDTVDRIYNGELNLEYIKSLNDNECHEELKKFMGVGPKVADCIMLFSMQKYSAFPVDTWVKKAMMSLYVAPDVSLKKIRDFGREKFGSLSGFAQQYLFYYARENNIQL | not soluble
10 | MGSDKIHHHHHHMDGSLNGETWRFIVRNIRIGVVEDDPASCQLVLDYLNRYQSETGEQFTVSVFDDGARIVEKYAPVYDILLLDIEMKEIDGMAAARRIRERDDNVVIIFITAAPQYAISGYEVRALSYLLKPLPWFAFSQELKKSIDMVRRNGDDSMLIETGKGQMRMNLTDILYLESIRHTIVIHTLDGKYSINGTLKDMEAKLADRHFFRSNSCYLVNLKHVTGVADQDCIMSDDERLRVSRPRKKAFLAALADYMGGGR | not soluble
11 | MGSDKIHHHHHHMDINFEYYKIFYYVAKYCNFTKAARALGNSQPNVTRAMNNLEQQINSILFIRNNRGVQLTPEGERLYAHVSAAMSQILAAEEELSDSIGLSHGSVSIGASETALNIYLLDRLKPFHMAYPGIRLKIYNHSTPQAINAVKNGMIDFAVVSTPAEVEAPLKMIKLGSFQEILVGGTTFTALGSQTLSLKELHNYPLIGLGRETMTFQFFNRLFMSHGLEFAPDTETATTDQILPLVKSELGLAFMPKPMAEAAIANREIVEIALEEEIPQRNICMVYDIHQPISAAARELKKVISDSHKV | not soluble
12 | MGSDKIHHHHHHMDKELDLAVTCYGKVKPLKYDLVLLPWGATEPHNLHLPYLTDCILSHDIALDAAKLAKTHYGIRCMVMPYVTAGSQNPGQRELDFCIHYRYETQKAILSDLVASLYAQGYRKMVIINGHGGNTFKSMIRDLSLDYPDFLIASSEWFAFIPAKEYFDEPGDHADELETSVMMHYHPELVNLDEAGDGNYKKFASQMLNEKVAWIPRNWQNVSQDTGIGNPKKASAGKGKKYAEAVVAKYALLFEELVHKELY | not soluble
13 | MGSDKIHHHHHHMDLNEIIEKLKDILSEEKEGQKVLDRDVALALHIHPQSFACMKSRQKIPYEEILAFCAKRKISANWLFYNQAPESLIDTTNQYCYIRYFSQVHASAGGGAFNDTEACERIKLDAFWVERLGGEKEIKQIEAIAVTGDSMEPTLEDGDLIFIHRQKRQISKGGIFVIQTPHGIFVKRLQERLDGGVDILSDNSLYPTQTLERDGIEVIGRVVGALKNLE | not soluble
14 | MGSDKIHHHHHHMDLRQIRTFVYIAELRSYTRAAAFLHVSQPALSRQMRLLEEELRLKLFLRHGHGVELTNEGVAFFARCRDVLSEFEQLRHDFRSTGANKAVMGLVSVGLPAPATRFATPKLLHAARKSYPGLSVRFAEGFSALLHEWLLSGSLDLAVLFGSNTPKLLTSLPVLVEDLVAISAATKTSRKKNFVNAQDLQNTPLILPHRPHILRELIDSLHLKKVEILEVDSTSLMIELARVGDGTTILPAGSAEQSIRAGHVVALPIINPTLSWQVSICYSSVRPLSVGARVVLDLMRREIAQKVTSGEWLSGRLIRPGTEMTEGLDAAP | not soluble
15 | MGSDKIHHHHHHMDNDWIADYLRPRLARDNGEHLSRQLYRQLRELIGQRRLAGGSVLPASRALAQAMQLGRNTVLSAYDQLAAEGYLESRHGSGTYVCDVFTNSTSQTSHSTAPARPLSQRGQRLTASSRLPVRKLGAFVPGLPELELFPHKAWQQCLARQQRSAPLEWLHYQHQGGLPALQSALIQYLYLTRSVRCEPEQIIIAPGAQNALTLLAQLLADPGDAIWLEEPGYAGAQAAMQAAGLRCQAIRVDEQGLRPDPEAAPPRIIYVTPAHQYPTGAVMALPRRLELLAHARRHGSWIIEDDYDGEFCYASAPLAALQSLDRDGRVIYLGTFSKVMFPSLKLAYLVLPPELVDSYRRCQARLQGEGSYLQQAAVADFIAQGHFARHIRHMRELYQRRQQLLKHAADQYLGHAMSLHGGDAGMHLLAELPDGFDEWELQAAAAERLLWLRPLARHFLDTPYRNGLVLGYAGIDDHAIRPAVQQLADLLETRLK | not soluble
16 | MGSDKIHHHHHHMDNLPDKLQNIVEEVDHQIAPKLEEIEDQIVYNQAKVLKAFQDNNVAEADLNGATGYGDDDIGRDKLDKVYAQVFDTEDALVRPQFVSGTHTLFTALSGNLKYGDTLTYLTGMPYDTLQKVIGLTDDKRGTLAEKGVKFSYVPLSDENLIDYDVAEKILKRDQPKMVAIQRSRGYSTRKTFTVEQIKEMISFVKKVSPNSIIFIDNCYGEFAEKYEPTEYGADLMAGSLIKNAGGGLAKTGGYIVGKKDLVENAKLQLTAPGCTDEGATIGHLHDLYEGFFLAPNVTGMAEKGMIFAAALFEKMGLNVTPAWDEKRSDIIETIIFNDPEKMVKFVQEVQKNSPIDSFVTPEAVHMEGYEDKIIMAAGNFVSGSTIEFSADGPIRPPYAVYMQGGLTYAHDKVAIINSVRDTFFNKK | not soluble
17 | MGSDKIHHHHHHMDNLQFTHAIARIRVLETRLLDRSKIERMIDSSSAEEALKILGETEYLNYMSNVRSPEDYEILLSEELKRLYTLLYSISPERSIIDIMALRYDYHNLKVMLKGKYLEKDLTYLLIPVGTISNDKLKQIFATEFYKELTPLMREALEKAESEYEGDKDPQKIDLILDSYAYKEILSKSEEVNEKFINDYIKMSIDLNNIRALLRAKAQNKHRKFFEAIILDGGTIDKKTLISYESETSDSIANKLSYTPYEKIIRLGLEEYSKTNNISYFEKLSENYIMDFIKKAKQVSFGVEPLIGYIIAKETEIKIIRIIMVGKLNSIAPNIIRERLRDAYV | not soluble
18 | MGSDKIHHHHHHMDNNNSYLWPVTYDEVSHELTKWKFYKHFTKISGSVYLKNDLIDDPVLVTQALIKRCPQGVLRGYAALNRRGYQLFDDPWMPIISISGEPRTRKTTNVGKIIRRETPENLRRSGEFTLVSDSQALLDVFSLHGLDSFEHQVALIDHLIRQCPDLKDEIKKVPELRKHAEFTDEFAESPPESRLRVRLHMQGYRNFMPQVRVELEGRRFYLDLADPVWGVALEYNGGWHYTAEQRSKDAFRKNALKNAGWDVFEVTSKTLQSQQAWDYFFQQVRVAIQRKYADRKRRLPMQTVS | not soluble
